Assay results as given in PMC12965321.

Target: RING1 [the product of Sex combs extra (Sce) gene] (D. melanogaster (endogenous in embryos)) (UniProt Q9VB08)
Assay: co-IP; nuclear extract of RYBP-KO, Siesta-Strep embryos (no RYBP), dialysed against 25 mM Hepes-KOH pH 7.6, 0.1 M KCl; anti-RING1 cross-linked to Dynabeads or Strep-Tactin Sepharose, 0.02% NP-40, overnight at 4°C; Western blot; compared with Siesta-Strep extract

Sequence of UniProt Q9VB08 (Q9VB08 whole entry): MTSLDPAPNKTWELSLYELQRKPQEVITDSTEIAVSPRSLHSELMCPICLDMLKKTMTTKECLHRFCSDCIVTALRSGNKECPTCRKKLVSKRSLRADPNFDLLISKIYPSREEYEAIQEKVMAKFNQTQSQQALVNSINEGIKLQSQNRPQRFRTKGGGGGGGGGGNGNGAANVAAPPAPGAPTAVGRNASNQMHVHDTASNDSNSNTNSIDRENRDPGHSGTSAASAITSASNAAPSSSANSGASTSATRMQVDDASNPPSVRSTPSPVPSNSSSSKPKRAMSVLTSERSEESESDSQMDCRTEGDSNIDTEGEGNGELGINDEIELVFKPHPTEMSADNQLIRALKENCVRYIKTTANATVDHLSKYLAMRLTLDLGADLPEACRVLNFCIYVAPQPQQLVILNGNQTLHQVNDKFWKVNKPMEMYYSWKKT

“Twin-Strep-tagged and Myc-tagged Siesta protein (natural protein)” was tested, and the fold reduction of coimmunoprecipitation without RYBP against extract with RYBP was > 6 fold.
